Assay results as given in US20240400690A1 (BIO THERA SOLUTIONS, published 2024).
Changes are numbered by the printed parent chain.

T1: mouse B7-H3 (SinoBiological, 50973-M08H) (mouse, UniProt Q8VE98 29-244)
T1 construct: Bought reagent
T1 sequence (looked up): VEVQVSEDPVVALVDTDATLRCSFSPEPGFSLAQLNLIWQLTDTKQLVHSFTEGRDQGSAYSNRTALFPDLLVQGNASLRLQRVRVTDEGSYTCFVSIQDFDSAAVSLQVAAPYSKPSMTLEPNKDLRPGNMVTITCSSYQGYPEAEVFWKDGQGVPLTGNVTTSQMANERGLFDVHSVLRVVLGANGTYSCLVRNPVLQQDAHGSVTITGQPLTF

T2: Lag3 (on Lag3-CHO cells) (UniProt P18627 23-525, limits assumed)
T2 construct: whole, on cells
T2 sequence (looked up): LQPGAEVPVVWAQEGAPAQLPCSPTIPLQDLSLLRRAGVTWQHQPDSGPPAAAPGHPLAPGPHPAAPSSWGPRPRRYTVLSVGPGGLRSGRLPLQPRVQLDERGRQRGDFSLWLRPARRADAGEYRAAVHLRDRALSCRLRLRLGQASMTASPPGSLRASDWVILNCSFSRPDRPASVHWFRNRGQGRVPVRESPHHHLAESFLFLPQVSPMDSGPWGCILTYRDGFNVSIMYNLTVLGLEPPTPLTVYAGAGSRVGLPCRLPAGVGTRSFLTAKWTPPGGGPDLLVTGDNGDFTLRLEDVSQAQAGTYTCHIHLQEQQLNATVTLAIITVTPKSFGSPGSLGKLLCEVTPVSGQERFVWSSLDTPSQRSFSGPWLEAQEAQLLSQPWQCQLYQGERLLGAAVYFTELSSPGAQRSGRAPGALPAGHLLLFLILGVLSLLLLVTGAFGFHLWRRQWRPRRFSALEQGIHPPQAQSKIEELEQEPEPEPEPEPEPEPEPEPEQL

T3: Tim3 (on Tim3-CHO cells) (UniProt Q8TDQ0 22-301, limits assumed)
T3 construct: whole, on cells
T3 sequence (looked up): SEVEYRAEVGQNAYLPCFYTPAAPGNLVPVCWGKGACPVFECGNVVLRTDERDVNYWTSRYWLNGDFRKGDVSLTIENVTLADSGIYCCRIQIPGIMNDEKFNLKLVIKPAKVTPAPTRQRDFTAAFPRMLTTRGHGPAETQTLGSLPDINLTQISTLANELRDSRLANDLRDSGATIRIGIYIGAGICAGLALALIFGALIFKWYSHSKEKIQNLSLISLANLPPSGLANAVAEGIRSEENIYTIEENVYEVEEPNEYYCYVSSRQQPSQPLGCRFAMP

T4: VISTA (on VISTA-CHO cells) (UniProt Q9H7M9 33-311, limits assumed)
T4 construct: whole, on cells
T4 sequence (looked up): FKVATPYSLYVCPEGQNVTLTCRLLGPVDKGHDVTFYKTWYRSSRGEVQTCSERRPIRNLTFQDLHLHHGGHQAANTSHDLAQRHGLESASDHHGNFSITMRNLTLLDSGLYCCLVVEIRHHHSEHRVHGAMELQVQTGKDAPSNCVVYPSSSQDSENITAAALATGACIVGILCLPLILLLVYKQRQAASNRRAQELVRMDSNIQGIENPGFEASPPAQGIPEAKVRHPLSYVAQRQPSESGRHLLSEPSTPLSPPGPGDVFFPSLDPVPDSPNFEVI

T5: B7-H3 on tumour cells (MDA-MB-468 cells, N87 cells) (UniProt Q5ZPR3 29-534, limits assumed)
T5 construct: whole, on cells
T5 sequence (looked up): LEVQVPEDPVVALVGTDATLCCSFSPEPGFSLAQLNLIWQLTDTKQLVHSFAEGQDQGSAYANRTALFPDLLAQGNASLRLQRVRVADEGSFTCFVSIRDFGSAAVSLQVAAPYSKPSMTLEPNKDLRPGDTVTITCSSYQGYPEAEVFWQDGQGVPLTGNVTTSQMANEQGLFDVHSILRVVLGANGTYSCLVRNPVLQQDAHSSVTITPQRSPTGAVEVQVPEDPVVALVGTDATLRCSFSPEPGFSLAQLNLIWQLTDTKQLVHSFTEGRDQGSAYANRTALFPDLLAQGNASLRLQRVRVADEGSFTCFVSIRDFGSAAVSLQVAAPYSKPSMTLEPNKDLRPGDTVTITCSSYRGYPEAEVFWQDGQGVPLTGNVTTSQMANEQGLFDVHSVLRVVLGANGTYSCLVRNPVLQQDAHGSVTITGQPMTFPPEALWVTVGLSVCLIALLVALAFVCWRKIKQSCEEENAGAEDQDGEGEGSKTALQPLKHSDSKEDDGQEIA

B1: antibody V3 (antibody, human IgG1, kappa, V domains shown)
VH: EVQLVQSGAEVKKSGESLKISCKASGYTFTDYDINWVRQMPGKGLEWIGWIFPGDDTTKYNEKFKGQVTLSADKSTNTAYMQWSSLKASDTAMYYCARSPSFDYWGQGTLVTVSS
VL: QIVLTQSPGTLSLSPGERATLSCSASSTIGFMYWYQQKPGQAPRRWIYDTSKLASGVPDRFSGSGSGTDYTLTISRLEPEDFAVYYCHQRSSYPTFGQGTKVEIKR
notes: Humanized from chimeric antibody M1; expressed in HEK293F cells; also called humanized antibody V3
B2: antibody M1 (antibody, human IgG1, kappa, V domains shown)
VH: QVQLQQSGPELVKPGASVRISCKASGYTFTDYDINWVQQRPGQGLEWIGWIFPGDDTTKYNEKFKGRATLTADKSSNTAYMQLNGLTSENSAVYFCARSPSFDYWGQGTLVTVSS
VL: QIVLTQSPAIMSASPGERVTMTCSASSTIGFMYWYQQKPGTSPKRWIYDTSKLASGVPARFSVSGSGTSYSLTISSMEAEDAATYYCHQRSSYPTFGGGTKLEIKR
notes: Chimeric antibody, murine variable regions on the IgG1 constant region; expressed in HEK293F cells; also called chimeric antibody M1
B3: control antibody M30-H1-L4 (antibody, human IgG1, kappa, V domains shown)
VH: QVQLVQSGAEVKKPGSSVKVSCKASGYTFTNYVMHWVRQAPGQGLEWMGYINPYNDDVKYNEKFKGRVTITADESTSTAYMELSSLRSEDTAVYYCARWGYYGSPLYYFDYWGQGTLVTVSS
VL: EIVLTQSPATLSLSPGERATLSCRASSRLIYMHWYQQKPGQAPRPLIYATSNLASGIPARFSGSGSGTDFTLTISSLEPEDFAVYYCQQWNSNPPTFGQGTKVEIKR
notes: Control anti-B7-H3 antibody; also called HIL4
B4: antibody V2 (antibody, human IgG1, kappa, V domains shown)
VH: B1 VH
VL: B1 VL with G63V
notes: Humanized from chimeric antibody M1; expressed in HEK293F cells; also called humanized antibody V2
B5: antibody V1 (antibody, human IgG1, kappa, V domains shown)
VH: B1 VH with I48M, L70I, M81L
VL: B1 VL with G63V
notes: Humanized from chimeric antibody M1; expressed in HEK293F cells; also called humanized antibody V1
B6: antibody V5 (antibody, human IgG1, kappa, V domains shown)
VH: QVQLVQSGAEVKKPGASVKVSCKASGYTFTDYDINWVRQAPGQRLEWIGWIFPGDDTTKYNEKFKGRATLTADKSASTAYMELSSLRSEDTAVYYCARSPSFDYWGQGTLVTVSS
VL: QIVLTQSPSSLSASVGDRVTITCSASSTIGFMYWYQQKPGKAPKRWIYDTSKLASGVPSRFSVSGSGTDYTLTISSLQPEDFATYYCHQRSSYPTFGQGTKVEIKR
notes: Humanized from chimeric antibody M1; expressed in HEK293F cells; also called humanized antibody V5

biological target: T1, mouse B7-H3 (SinoBiological, 50973-M08H); experiment: ELISA, antigen coated at 2 µg/mL; Table 13 prints EC50 as NA
Description: The day before the experiment, the target antigens cynomolgus monkey B7-H3 (novoprotein CA61), mouse B7-H3 (SinoBiological, 50973-M08H) and hB7-H3-his were each diluted to 2 μg/mL with 1×PBS and added to a ELISA plate (96-well plate) at 100 μL/well (two rows for each antigen), and the wells were coated overnight at 4° C.

Binder	binding result
B1	no binding

biological target: T2, Lag3 (on Lag3-CHO cells); experiment: flow cytometry on Lag3-CHO cells, PE goat anti-human IgG Fc secondary; blank 0.5% in P3
Description: (§1) Cells (VISTA-CHO cells, Tim3-CHO cells or Lag3-CHO cells) in logarithmic phase were collected and centrifuged at 1500 rpm for 5 min, and the supernatant was removed. The cells were resuspended in 1×PBS and centrifuged at 1500 rpm for 5 min, and the supernatant was removed, and then the procedure was repeated once. […]

Binder	% of cells in gate P3 at 100 nM [%]
B2	0.9
B3	0.3

biological target: T3, Tim3 (on Tim3-CHO cells); experiment: flow cytometry on Tim3-CHO cells, PE goat anti-human IgG Fc secondary; blank 0.2% in P3
Description: as §1

Binder	% of cells in gate P3 at 100 nM [%]
B2	0.8
B3	0.4

biological target: T4, VISTA (on VISTA-CHO cells); experiment: flow cytometry on VISTA-CHO cells, PE goat anti-human IgG Fc secondary; blank 0.1% in P3
Description: as §1

Binder	% of cells in gate P3 at 100 nM [%]
B2	0.6
B3	0.2

biological target: T5, B7-H3 on tumour cells (MDA-MB-468 …); experiment: flow cytometry on MDA-MB-468 cells, PE goat anti-human IgG Fc secondary; blank 0.9% in the positive gate
Description: MDA-MB-468 cells in logarithmic phase were collected and centrifuged at 1500 rpm for 5 min, and the supernatant was removed. The cells were resuspended in 1×PBS and centrifuged at 1500 rpm for 5 min, and the supernatant was removed, and then the procedure was repeated once. MDA-MB-468 cells were added to a V-bottom 96-well plate at 50 μL/well (200,000 cells) and centrifuged at 1500 rpm for 5 min, and PBS was discarded; the humanized antibody diluted in gradient (initial concentration of 100 nM, 3-fold gradient dilution, 1×PBS as the vehicle) was added at 100 μL/well; the cells were resuspended, and incubated on ice for 1 h; after the incubation was completed, the cells were centrifuged at 2000 rpm for 5 min, and the supernatant was removed; the cells were resuspended in 1×PBS added at 200 µL/well and centrifuged again and the supernatant was removed, and the procedure was repeated twice; a PE-labeled goat anti-human IgG Fc secondary antibody (Invitrogen, cat #12-4998-82, diluted with 1×PBS at 1:500) was added at 100 μL/well; the cells were resuspended, and incubated for 30 min on ice in the absence of light; after the incubation was completed, the cells were centrifuged at 2000 rpm for 5 min, and the supernatant was removed; the cells were resuspended in 1×PBS added at 200 μL/well and centrifuged again and the supernatant was removed, and the procedure was repeated twice; 1×PBS was then added at 200 μL/well to resuspend the cells; the detection was performed with a cytoflex flow cytometer (Beckman).

Binder	% of cells in positive gate V1-R at 0.411 nM [%]	% of cells in positive gate V1-R at 1.23 nM [%]	% of cells in positive gate V1-R at 3.7 nM [%]	% of cells in positive gate V1-R at 11.11 nM [%]	% of cells in positive gate V1-R at 33.33 nM [%]	% of cells in positive gate V1-R at 100 nM [%]
B2	26.5	93.1	98.7	99.5	99.7	99.7
B4	1.2	1.3		97.8	99.7	
B5	1.4	8.6	92.7	99.5	99.6	99.7
B1	36.8	86.4	94	97.2	98.9	99.6
B3	1.1	4		97.2	98.8	99.3
B6	31.6	73.5	92.6	99.3	99.6	99.7
